Data published in patent publication US20150309037A1.

Assays:
[1] = target: GDNF family receptor alpha 1 (GFRA1) (UniProt P56159); experiment: cell-based or functional assay
[2] = target: trans-membrane receptor kinase RET (UniProt P07949); experiment: cell-based or functional assay
Chain of trans-membrane receptor kinase RET (P07949 29-1114 limits assumed): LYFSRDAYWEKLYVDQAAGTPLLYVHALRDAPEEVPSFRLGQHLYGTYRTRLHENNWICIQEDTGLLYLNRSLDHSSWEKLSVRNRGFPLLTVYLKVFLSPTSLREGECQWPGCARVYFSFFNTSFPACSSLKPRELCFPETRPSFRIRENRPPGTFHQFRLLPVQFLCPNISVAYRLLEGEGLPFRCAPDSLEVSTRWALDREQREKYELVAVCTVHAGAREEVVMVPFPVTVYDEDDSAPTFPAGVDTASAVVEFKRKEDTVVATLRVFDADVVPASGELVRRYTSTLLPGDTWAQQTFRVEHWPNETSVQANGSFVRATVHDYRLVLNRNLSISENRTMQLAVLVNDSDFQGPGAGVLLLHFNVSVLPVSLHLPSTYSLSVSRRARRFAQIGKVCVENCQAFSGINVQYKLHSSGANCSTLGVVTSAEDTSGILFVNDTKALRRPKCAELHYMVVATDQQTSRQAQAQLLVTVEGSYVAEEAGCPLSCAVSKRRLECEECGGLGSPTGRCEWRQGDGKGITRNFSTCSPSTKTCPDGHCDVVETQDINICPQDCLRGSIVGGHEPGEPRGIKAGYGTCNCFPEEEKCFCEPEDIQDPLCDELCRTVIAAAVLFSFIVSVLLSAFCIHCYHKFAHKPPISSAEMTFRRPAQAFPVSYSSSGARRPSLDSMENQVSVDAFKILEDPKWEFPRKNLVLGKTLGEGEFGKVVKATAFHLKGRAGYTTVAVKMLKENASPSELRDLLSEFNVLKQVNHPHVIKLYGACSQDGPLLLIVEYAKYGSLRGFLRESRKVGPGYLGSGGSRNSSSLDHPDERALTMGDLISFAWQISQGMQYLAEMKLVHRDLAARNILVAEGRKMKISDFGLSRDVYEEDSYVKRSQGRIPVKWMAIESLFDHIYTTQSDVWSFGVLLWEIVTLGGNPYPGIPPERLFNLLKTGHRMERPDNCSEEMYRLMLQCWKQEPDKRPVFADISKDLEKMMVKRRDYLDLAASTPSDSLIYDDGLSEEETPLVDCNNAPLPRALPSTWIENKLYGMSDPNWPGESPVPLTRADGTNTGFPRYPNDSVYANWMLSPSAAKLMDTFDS

Chain of GDNF family receptor alpha 1 (GFRA1) (P56159 25-429 limits assumed): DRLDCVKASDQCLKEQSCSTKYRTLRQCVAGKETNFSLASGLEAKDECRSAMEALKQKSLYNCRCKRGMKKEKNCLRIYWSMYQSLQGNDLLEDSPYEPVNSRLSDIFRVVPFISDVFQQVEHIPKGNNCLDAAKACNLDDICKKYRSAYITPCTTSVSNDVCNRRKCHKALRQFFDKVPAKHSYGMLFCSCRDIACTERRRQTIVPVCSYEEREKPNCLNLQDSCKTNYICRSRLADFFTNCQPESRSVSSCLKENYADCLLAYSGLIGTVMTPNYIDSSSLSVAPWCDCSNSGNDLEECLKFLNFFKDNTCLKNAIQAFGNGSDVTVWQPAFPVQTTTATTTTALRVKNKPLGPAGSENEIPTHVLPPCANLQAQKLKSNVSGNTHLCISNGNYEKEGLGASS

**Q.** Which proliferation, GDNF concentration of maximum stimulation [1] does the source give for “glial cell line-derived neurotrophic factor (GDNF) (from UniProt P39905 78-211) (ligand)” here?
**A.** 10 ng/mL

**Q.** And the proliferation, GDNF concentration of maximum stimulation [2]?
**A.** 10 ng/mL
